# US20140295512A1, “Ketol-Acid Reductoisomerases With Improved Performance Properties” (CALIFORNIA INSTITUTE OF TECHNOLOGY, priority 2011, published 2014)
# Where a chain is given by its changes, count along the chain named. Numbers in names are those of the source. Like-named read-outs stand apart in the source and are kept apart here.
# B1: Se1_KARI^1AA10: S. exigua KARI variant S61C, S63D, I95T (protein, UniProt D0WGK0 1-342, looked up, variant S61C S63D I95T)
# Ketol-acid reductoisomerase …: MSVKTKEKEMAVTILYEQDVDPKVIQGLKVGIIGYGSQGHAHALNLMDSGVDVRVGLREGCSDWKTAEEAGLKVTDMDTAAEEADVIMVLVPDETQPKVYQEHIAAHLKAGNTLAFAHGFNIHYGYIVPPEDVNVIMCAPKGPGHIVRRQFTEGSGVPDLACVQQDATGNAWDIVLSYCWGVGGARSGIIKATFAEETEEDLFGEQAVLCGGLVELVKAGFETLTEAGYPPELAYFECYHEMKMIVDLMYESGIHFMNYSISNTAEYGEYYAGPKVINEQSREAMKEILKRIQDGSFAQEFVDDCNNGHKRLLEQREAINTHPIETTGAQIRSMFSWIKKED
# B2: S63M: Slackia KARI variant with residue S63 mutated to M (protein, UniProt D0WGK0 1-342, looked up, variant S63M)
# Ketol-acid reductoisomerase …: B1 Ketol-acid reductoisomerase … with C61S, D63M, T95I
# B3: S63E: Slackia KARI variant with residue S63 mutated to E (protein, UniProt D0WGK0 1-342, looked up, variant S63E)
# Ketol-acid reductoisomerase …: B1 Ketol-acid reductoisomerase … with C61S, D63E, T95I
# B4: S631: Slackia KARI variant with residue S63 mutated (printed S631, probably S63I) (protein, UniProt D0WGK0 1-342, looked up, variant S63I)
# Ketol-acid reductoisomerase …: B1 Ketol-acid reductoisomerase … with C61S, D63I, T95I
# B5: S63R: Slackia KARI variant with residue S63 mutated to R (protein, UniProt D0WGK0 1-342, looked up, variant S63R)
# Ketol-acid reductoisomerase …: B1 Ketol-acid reductoisomerase … with C61S, D63R, T95I
# B6: S63H: Slackia KARI variant with residue S63 mutated to H (protein, UniProt D0WGK0 1-342, looked up, variant S63H)
# Ketol-acid reductoisomerase …: B1 Ketol-acid reductoisomerase … with C61S, D63H, T95I
# Experiments:
# [1] = KARI assay of purified S. exigua KARI and variants with NADH (Examples 6-9); type: biochemical; conditions: for U/mg NADH (specific activity): cofactor NADH; for Ratio NADH/NADPH (U/mg): specific activity ratio
# Method: (§1) S. exigua KARI activity or activities of its variants were assayed kinetically by monitoring the decrease in NADPH or NADH concentration by measuring the change in absorbance at 340 nm. An assay buffer was prepared containing 100 mM potassium phosphate pH 7.0, 1 mM DTT, 2.5 mM (S)-2-acetolactate, and 10 mM MgCl2 (final concentrations in the 1-mL assay, accounting for dilution with enzyme and cofactor). Fifty μL purified enzyme and 930 μL of the assay buffer were placed into a 1-mL cuvette. The reaction was initiated by addition of 20 μL NADPH or NADH (200 μM final concentration) for a general activity assay. Michaelis-Menten constants of the cofactors were determined with varying concentrations of NADPH (200-12 μM final) or NADH (200-6 μM final).
# [2] = KARI assay of purified S. exigua KARI and variants with NADPH (Examples 6-9); type: biochemical
# Method: as §1
molecule,measurement,setting,value
B1,"NADH KM value, fold increased versus wild-type",[1],1.3 fold
same,kcat NADH,[1],0.8 s⁻¹
same,"kcat with NADH, fold increase versus wild-type",[1],2 fold
same,kcat/Km ratio NADH/NADPH (cofactor specificity),[1],7.1
same,U/mg NADH (specific activity),[1],0.32 U/mg
same,U/mg NADH (specific activity),[1]; listed as 1AA10,0.8 U/mg
same,kcat/Km ratio NADH/NADPH (cofactor specificity),[1]; listed as Se1_KARI^1AA10-his6,7
same,Km,[1]; read-out: Km for cofactor NADH,62 µM
same,Ratio NADH/NADPH (U/mg),[1],1.2
same,"NADPH KM value, fold increased versus wild-type/parent",[2],at least 367 fold
same,kcat NADPH,[2],0.67 s⁻¹
same,"kcat with NADPH, fold decreased versus wild-type",[2],1.2 fold
same,U/mg NADPH (specific activity),[2]; cofactor NADPH,0.27 U/mg
same,"NADPH KM value, fold increased versus wild-type/parent",[2]; listed as Se1_KARI^1AA10-his6,> 367 fold
same,Km,[2]; read-out: Km for cofactor NADPH,367 µM
B2,Ratio NADH/NADPH (U/mg),[1],4
B3,Ratio NADH/NADPH (U/mg),[1],9
B4,Ratio NADH/NADPH (U/mg),[1],4
B5,Ratio NADH/NADPH (U/mg),[1],3.7
B6,Ratio NADH/NADPH (U/mg),[1],4
